Measured values reported in patent US20150098941A1 (Chugai, published 2015).
Residue numbers refer to the chain shown, from its start. In names and notes the source's numbering stands.

B1: Fc-modified humanized anti-GPC3 antibody V209 (S239D/A330L/I332E) (antibody, human IgG1)
heavy: QVQLVQSGAEVKKPGASVKVSCKASGYTFTDYEMHWVRQAPGQGLEWMGALDPKTGDTAYSQKFKGRVTLTADKSTSTAYMELSSLTSEDTAVYYCTRFYSYTYWGQGTLVTVSSASTKGPSVFPLAPSSKSTSGGTAALGCLVKDYFPEPVTVSWNSGALTSGVHTFPAVLQSSGLYSLSSVVTVPSSSLGTQTYICNVNHKPSNTKVDKKVEPKSCDKTHTCPPCPAPELLGGPDVFLFPPKPKDTLMISRTPEVTCVVVDVSHEDPEVKFNWYVDGVEVHNAKTKPREEQYNSTYRVVSVLTVLHQDWLNGKEYKCKVSNKALPLPEEKTISKAKGQPREPQVYTLPPSRDELTKNQVSLTCLVKGFYPSDIAVEWESNGQPENNYKTTPPVLDSDGSFFLYSKLTVDKSRWQQGNVFSCSVMHEALHNHYTQKSLSLSPGK
VL: DVVMTQSPLSLPVTPGEPASISCRSSQSLVHSNGNTYLHWYLQKPGQSPQLLIYKVSNRFSGVPDRFSGSGSGTDFTLKISRVEAEDVGVYYCSQNTHVPPTFGQGTKLEIK
notes: G1m(1) allotype
B2: Fc-modified humanized anti-GPC3 antibody V22 (I332E) (antibody)
heavy: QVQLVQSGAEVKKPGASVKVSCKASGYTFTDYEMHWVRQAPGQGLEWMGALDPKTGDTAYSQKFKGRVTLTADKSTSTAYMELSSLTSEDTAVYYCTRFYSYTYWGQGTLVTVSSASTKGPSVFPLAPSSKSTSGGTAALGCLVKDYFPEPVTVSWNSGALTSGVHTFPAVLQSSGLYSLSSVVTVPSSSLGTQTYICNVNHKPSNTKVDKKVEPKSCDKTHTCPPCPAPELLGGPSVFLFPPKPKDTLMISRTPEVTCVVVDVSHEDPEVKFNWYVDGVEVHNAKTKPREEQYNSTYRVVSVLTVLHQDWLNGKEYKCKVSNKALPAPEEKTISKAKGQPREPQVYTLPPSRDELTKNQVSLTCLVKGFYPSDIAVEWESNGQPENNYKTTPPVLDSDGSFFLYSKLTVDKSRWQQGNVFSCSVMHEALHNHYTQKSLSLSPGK
VL: B1 VL
notes: also called pC-aGPChl (22)
B3: Fc-modified humanized anti-GPC3 antibody V209 nG1m(1) allotype (S239D/A330L/I332E/D356E/L358M) (antibody, human IgG1, name in EU numbering)
heavy: B1 heavy with D354E, L356M
VL: B1 VL
B4: Fc-modified humanized anti-GPC3 antibody V212 (S239D/S298A/I332E) (antibody, human IgG1)
heavy: B1 heavy with S296A, L328A
VL: B1 VL
notes: also called pC-aGPChl (212)
B5: Fc-modified humanized anti-GPC3 antibody V922 (S239D/K326T/I332E) (antibody, human IgG1)
heavy: B1 heavy with K324T, L328A
VL: B1 VL

Target: T1, fused protein GST-GPC3 (GST and human glypican-3 peptide of SEQ ID NO: 16) (human, UniProt P51654 524-563)
T1 construct: It was immobilized on a BIACORE chip; also called GPC3 peptide; not shown: GST (glutathione S-transferase)
Test: SPR (BIACORE 3000), CHO culture supernatant over immobilized GST-GPC3
Method: This was introduced into 2×10⁶/0.6 ml PBS(−) of CHO cells (strain DXB11S) according to an electroporation method under a condition of 1.5 kV and 25 uF. The cells were incubated in a 8% CO₂ incubator at 37° C. The cells were screened in CHO-S-SFMII medium (Invitrogen) containing 400 μg/ml of geneticin. Selected cells were inoculated into a CHO-S-SFMII medium containing 400 μg/ml geneticin in a 96-well plate at 0.4 cells/100 μl/well, and the cells were cloned according to a limiting dilution method. The culture supernatant was analyzed with BIACORE 3000. The antigen was quantified using a chip with fused protein GST-GPC3 (antigen GST and human glypican-3 shown by SEQ ID NO:16) immobilized thereon, and high-expression cells were selected.

T1 sequence (P51654 524-563 limits assumed): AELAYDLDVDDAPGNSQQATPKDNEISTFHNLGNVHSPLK

Binder | binding result
B1 | binds
B2 | binds
B3 | binds
B4 | binds
B5 | binds
